The IC50 is the concentration at which inhibition is half-maximal.

In test [1] the target is T1, human thrombin (human, UniProt P00734 328-622). As to the kind of experiment: thrombin inhibition rate in the absence of heparin.
For the next test, the target named is human factor Xa (human, UniProt P00742 41-179; P00742 235-488, limits assumed). As to the kind of experiment: cell-based or functional assay.
In test [2] the target is T1, human thrombin. The test is described as follows: cell-based or functional assay.
In test [3] the target is T2, human neutrophil cathepsin G (human, UniProt P08311 21-244).
T2 sequence (looked up): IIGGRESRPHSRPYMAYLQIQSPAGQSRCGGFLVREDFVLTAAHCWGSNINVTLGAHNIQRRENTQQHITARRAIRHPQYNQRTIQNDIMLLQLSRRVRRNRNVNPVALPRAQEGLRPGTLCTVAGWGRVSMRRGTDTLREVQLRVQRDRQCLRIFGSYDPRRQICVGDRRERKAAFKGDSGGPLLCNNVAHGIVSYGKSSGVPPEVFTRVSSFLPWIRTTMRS
The test is described as follows: cell-based or functional assay.

The target of test [4] is T3, human neutrophil elastase (human, UniProt P08246 30-247, limits assumed).
T3 sequence (looked up): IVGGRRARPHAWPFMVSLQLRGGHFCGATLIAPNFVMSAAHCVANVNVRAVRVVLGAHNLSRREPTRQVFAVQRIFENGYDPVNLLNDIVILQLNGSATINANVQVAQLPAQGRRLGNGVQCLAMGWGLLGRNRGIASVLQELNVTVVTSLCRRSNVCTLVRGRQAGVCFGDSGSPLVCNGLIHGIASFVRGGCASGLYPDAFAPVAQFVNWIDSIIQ
As to the kind of experiment: cell-based or functional assay.

Test [5] addresses T1, human thrombin. As to the kind of experiment: thrombin inhibition rate in the presence of heparin (HAH).
A further test concerns the target thrombin (human, UniProt P00734 328-622). As to the kind of experiment: heparin cofactor assay, HCA expt #4; ATIII titrated on 10 nM thrombin + 50 ug/ml UFH, chromogenic readout. As to the method:
(§1) After 3 minutes, the reactions were quenched with polybrene and chromogenic substrate S2238 (thrombin) or S2765 (fXa), and the initial rate of chromophore production (405 nm) recorded to obtain a measurement residual, uninhibited thrombin or factor Xa. IC50s were determined from plots of ATIII concentration vs. percent residual target enzyme activity.

The target in the next test is T4, factor Xa (human, UniProt P00742 41-179; P00742 235-488, limits assumed).
T4 construct: Active factor Xa has a light and a heavy chain; also called fXa
As to the kind of experiment: heparin cofactor assay, HCA expt #4; ATIII titrated on 10 nM fXa + 50 ug/ml UFH, chromogenic readout. Here is the method: as §1

T4 sequence (P00742 41-179 limits assumed, form in doubt, chain 1 of 2): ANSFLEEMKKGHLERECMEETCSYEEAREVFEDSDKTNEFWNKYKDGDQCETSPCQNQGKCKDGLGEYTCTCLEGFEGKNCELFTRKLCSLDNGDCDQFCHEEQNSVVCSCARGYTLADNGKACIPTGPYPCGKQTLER
T4 sequence (P00742 235-488 limits assumed, form in doubt, chain 2 of 2): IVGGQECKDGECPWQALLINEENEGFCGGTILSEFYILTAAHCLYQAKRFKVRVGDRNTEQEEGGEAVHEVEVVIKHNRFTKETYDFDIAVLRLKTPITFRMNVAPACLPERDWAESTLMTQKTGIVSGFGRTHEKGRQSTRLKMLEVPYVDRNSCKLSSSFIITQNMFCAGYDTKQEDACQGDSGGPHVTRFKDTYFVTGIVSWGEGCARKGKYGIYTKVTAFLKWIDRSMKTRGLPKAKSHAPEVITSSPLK
Sequence of human factor Xa (P00742 41-179 limits assumed, chain 1 of 2): as the sequence (P00742 41-179 limits assumed, form in doubt, chain 1 of 2) above
Sequence of human factor Xa (P00742 235-488 limits assumed, chain 2 of 2): as the sequence (P00742 235-488 limits assumed, form in doubt, chain 2 of 2) above

B1: LEAQ.503 (other)
chain: SPVDICTAKPRDIPMNPMCIYRSPEKKATEDEGSEQKIPEATNRRVWELSKANSRFATTFYQHLADSKNDNDNIFLSPLSISTAFAMTKLGACNDTLQQLMEVFKFDTISEKTSDQIHFFFAKLNCRLYRKANKASKLVSANRLFGDKSLTFNETYQDISELVYGAKLQPLDFKENAEQSRAAINKWVSNKTEGRITDVIPSEAINELTVLVLVNTIYFKGLWKSKFSPENTRKELFYKADGESCSASMMYQEGKFRYRRVAEGTQVLELPFKGDDITMVLILPKPEKSLAKVEKELTPEVLQEWLDELEEMMLVVHMPRFRIEDGFSLKEQLQDMGLVDLFSPEKSKLPGIVAEGRDDLYVSDAFHKAFLEVNEEGSEAAASTALTAQGRSLNPNRVTFKANRPFLVFIREVPLNTIIFMGRVANPCVK
notes: also called DES.LEAQ.503
On to B1, for which the “Kapp, thrombin progressive” value with human thrombin [1] was determined as 3700 M⁻¹ s⁻¹. Also, in the test with human factor Xa, the “IC50 fXa/UFH (HCA #5)” value is 11 nM and the “rsd Xa, no add (CA #51, stg 1 conc 200)” value came out at 1%. Also, in the test with human thrombin [2], the “IC50 IIa/UFH (HCA #5)” value worked out at 13 nM and the “rsd IIa, no add (CA #51, stg 1 conc 200)” value stood at 0%. For the same molecule, in test [3], the “rsd IIa, catG (CA #51, stg 1 conc 200)” value came to 1% and the “rsd Xa, catG (CA #51, stg 1 conc 200)” value is -2%. In test [4], the “rsd IIa, HNE (CA #51, stg 1 conc 200)” value stood at 1% and the “rsd Xa, HNE (CA #51, stg 1 conc 200)” value stood at 0%. In the test with human thrombin [5], the “Kapp, thrombin HAH” value is 1.6e+07 M⁻¹ s⁻¹.

B2: 7EVEA.458 (other)
chain: SPVDICTAKPRDIPMNPMCIYRSPEKKATEDEGSEQKIPEATNRRVWELSKANSRFATTFYQHLADSKNDNDNIFLSPLSISTAFAMTKLGACNDTLQQLMEVFKFDTISEKTSDQIHFFFAKLNCRLYRKANKASKLVSANRLFGDKSLTFNETYQDISELVYGAKLQPLDFKENAEQSRAAINKWVSNKTEGRITDVIPSEAINELTVLVLVNTIYFKGLWKSKFSPENTRKELFYKADGESCSASMMYQEGKFRYRRVAEGTQVLELPFKGDDITMVLILPKPEKSLAKVEKELTPEVLQEWLDELEEMMLVVHMPRFRIEDGFSLKEQLQDMGLVDLFSPEKSKLPGIVAEGRDDLYVSDAFHKAFLEVNEEGSEAAASTEVEAAPRSLNPNRVTFKANRPFLVFIREVPLNTIIFMGRVANPCVK
modifications: N-linked glycans added by Drosophila S2 cells; not carried by the letters
notes: Made in Drosophila S2 cells (DES) on the S137A background; N-terminus printed as SPVDI---
B2: the IC50 with thrombin was more than 1000 nM; in the test with factor Xa, 250 nM.

B3: 7EVEA.455 (other)
chain: SPVDICTAKPRDIPMNPMCIYRSPEKKATEDEGSEQKIPEATNRRVWELSKANSRFATTFYQHLADSKNDNDNIFLSPLSISTAFAMTKLGACNDTLQQLMEVFKFDTISEKTSDQIHFFFAKLNCRLYRKANKASKLVSANRLFGDKSLTFNETYQDISELVYGAKLQPLDFKENAEQSRAAINKWVSNKTEGRITDVIPSEAINELTVLVLVNTIYFKGLWKSKFSPENTRKELFYKADGESCSASMMYQEGKFRYRRVAEGTQVLELPFKGDDITMVLILPKPEKSLAKVEKELTPEVLQEWLDELEEMMLVVHMPRFRIEDGFSLKEQLQDMGLVDLFSPEKSKLPGIVAEGRDDLYVSDAFHKAFLEVNEEGSEAAASTEVEVAGRSLNPNRVTFKANRPFLVFIREVPLNTIIFMGRVANPCVK
modifications: N-linked glycans added by Drosophila S2 cells; not carried by the letters
notes: as for B2
On to B3, for which the IC50 with thrombin is more than 1000 nM; with factor Xa it was 110 nM.

B4: 13C (other)
chain: SPVDICTAKPRDIPMNPMCIYRSPEKKATEDEGSEQKIPEATNRRVWELSKANSRFATTFYQHLADSKNDNDNIFLSPLSISTAFAMTKLGACNDTLQQLMEVFKFDTISEKTSDQIHFFFAKLNCRLYRKANKASKLVSANRLFGDKSLTFNETYQDISELVYGAKLQPLDFKENAEQSRAAINKWVSNKTEGRITDVIPSEAINELTVLVLVNTIYFKGLWKSKFSPENTRKELFYKADGESCSASMMYQEGKFRYRRVAEGTQVLELPFKGDDITMVLILPKPEKSLAKVEKELTPEVLQEWLDELEEMMLVVHMPRFRIEDGFSLKEQLQDMGLVDLFSPEKSKLPGIVAEGRDDLYVSDAFHKAFLEVNEEGSEAAASTELEGAGRSLNPNRVTFKANRPFLVFIREVPLNTIIFMGRVANPCVK
notes: N-terminus printed as SPVDI---; text (ELEG) and primer codon GAG give E
B4: the IC50 is more than 1000 nM with thrombin and 33 nM with factor Xa.

B5: LEAQ.504 (other)
chain: SPVDICTAKPRDIPMNPMCIYRSPEKKATEDEGSEQKIPEATNRRVWELSKANSRFATTFYQHLADSKNDNDNIFLSPLSISTAFAMTKLGACNDTLQQLMEVFKFDTISEKTSDQIHFFFAKLNCRLYRKANKASKLVSANRLFGDKSLTFNETYQDISELVYGAKLQPLDFKENAEQSRAAINKWVSNKTEGRITDVIPSEAINELTVLVLVNTIYFKGLWKSKFSPENTRKELFYKADGESCSASMMYQEGKFRYRRVAEGTQVLELPFKGDDITMVLILPKPEKSLAKVEKELTPEVLQEWLDELEEMMLVVHMPRFRIEDGFSLKEQLQDMGLVDLFSPEKSKLPGIVAEGRDDLYVSDAFHKAFLEVNEEGSEAAASTALNAQGRSLNPNRVTFKANRPFLVFIREVPLNTIIFMGRVANPCVK
notes: also called DES.LEAQ.504
Turning to B5, in the test with human thrombin [1], the “Kapp, thrombin progressive” value turned out to be 3300 M⁻¹ s⁻¹. For the same molecule, in the test with human factor Xa, the “IC50 fXa/UFH (HCA #5)” value turned out to be 14 nM and the “rsd Xa, no add (CA #51, stg 1 conc 200)” value is 0%. In addition, in the test with human thrombin [2], the “IC50 IIa/UFH (HCA #5)” value was determined as 17 nM and the “rsd IIa, no add (CA #51, stg 1 conc 200)” value is 1%. In test [3], the “rsd IIa, catG (CA #51, stg 1 conc 200)” value stood at 1% and the “rsd Xa, catG (CA #51, stg 1 conc 200)” value is -1%. Moreover, in test [4], the “rsd IIa, HNE (CA #51, stg 1 conc 200)” value stood at 1% and the “rsd Xa, HNE (CA #51, stg 1 conc 200)” value was found to be 1%. Besides, the “Kapp, thrombin HAH” value with human thrombin [5] was 6.1e+06 M⁻¹ s⁻¹.

B6: 13C.438 (other)
chain: SPVDICTAKPRDIPMNPMCIYRSPEKKATEDEGSEQKIPEATNRRVWELSKANSRFATTFYQHLADSKNDNDNIFLSPLSISTAFAMTKLGACNDTLQQLMEVFKFDTISEKTSDQIHFFFAKLNCRLYRKANKASKLVSANRLFGDKSLTFNETYQDISELVYGAKLQPLDFKENAEQSRAAINKWVSNKTEGRITDVIPSEAINELTVLVLVNTIYFKGLWKSKFSPENTRKELFYKADGESCSASMMYQEGKFRYRRVAEGTQVLELPFKGDDITMVLILPKPEKSLAKVEKELTPEVLQEWLDELEEMMLVVHMPRFRIEDGFSLKEQLQDMGLVDLFSPEKSKLPGIVAEGRDDLYVSDAFHKAFLEVNEEGSEAAASTELENAGRSLNPNRVTFKANRPFLVFIREVPLNTIIFMGRVANPCVK
modifications: N-linked glycans added by Drosophila S2 cells; not carried by the letters
notes: as for B2
For B6, the half-maximal inhibitory concentration (IC50) in the test with thrombin is more than 1000 nM; in the test with factor Xa it was 22 nM.

B7: 7EVEA.459 (other)
chain: SPVDICTAKPRDIPMNPMCIYRSPEKKATEDEGSEQKIPEATNRRVWELSKANSRFATTFYQHLADSKNDNDNIFLSPLSISTAFAMTKLGACNDTLQQLMEVFKFDTISEKTSDQIHFFFAKLNCRLYRKANKASKLVSANRLFGDKSLTFNETYQDISELVYGAKLQPLDFKENAEQSRAAINKWVSNKTEGRITDVIPSEAINELTVLVLVNTIYFKGLWKSKFSPENTRKELFYKADGESCSASMMYQEGKFRYRRVAEGTQVLELPFKGDDITMVLILPKPEKSLAKVEKELTPEVLQEWLDELEEMMLVVHMPRFRIEDGFSLKEQLQDMGLVDLFSPEKSKLPGIVAEGRDDLYVSDAFHKAFLEVNEEGSEAAASTEVEIAPRSLNPNRVTFKANRPFLVFIREVPLNTIIFMGRVANPCVK
notes: as for B2
On to B7, for which the results for the IC50 with thrombin and in the test with factor Xa were more than 1000 nM and 75 nM, respectively.

B8: LEAQ.508 (other)
chain: SPVDICTAKPRDIPMNPMCIYRSPEKKATEDEGSEQKIPEATNRRVWELSKANSRFATTFYQHLADSKNDNDNIFLSPLSISTAFAMTKLGACNDTLQQLMEVFKFDTISEKTSDQIHFFFAKLNCRLYRKANKASKLVSANRLFGDKSLTFNETYQDISELVYGAKLQPLDFKENAEQSRAAINKWVSNKTEGRITDVIPSEAINELTVLVLVNTIYFKGLWKSKFSPENTRKELFYKADGESCSASMMYQEGKFRYRRVAEGTQVLELPFKGDDITMVLILPKPEKSLAKVEKELTPEVLQEWLDELEEMMLVVHMPRFRIEDGFSLKEQLQDMGLVDLFSPEKSKLPGIVAEGRDDLYVSDAFHKAFLEVNEEGSEAAASTALKAQGRSLNPNRVTFKANRPFLVFIREVPLNTIIFMGRVANPCVK
notes: also called DES.LEAQ.508
In the case of B8, the “Kapp, thrombin progressive” value with human thrombin [1] stood at 4100 M⁻¹ s⁻¹. Also, in the test with human factor Xa, the “IC50 fXa/UFH (HCA #5)” value was found to be 19 nM and the “rsd Xa, no add (CA #51, stg 1 conc 200)” value was -1%. Also, in the test with human thrombin [2], the “IC50 IIa/UFH (HCA #5)” value is 18 nM and the “rsd IIa, no add (CA #51, stg 1 conc 200)” value was 1%. Besides, in test [3], the “rsd IIa, catG (CA #51, stg 1 conc 200)” value came to 1% and the “rsd Xa, catG (CA #51, stg 1 conc 200)” value is -2%. Moreover, in test [4], the “rsd IIa, HNE (CA #51, stg 1 conc 200)” value was determined as 1% and the “rsd Xa, HNE (CA #51, stg 1 conc 200)” value is -3%. In addition, the “Kapp, thrombin HAH” value with human thrombin [5] came out at 1.1e+07 M⁻¹ s⁻¹.

Values taken from patent US20060259987A1 (UNIVERSITY OF UTAH RESEARCH FOUNDATION, published 2006).
